{"source": "patent US20220251174A1", "about": "(published 2022)", "binders": {"B1": {"name": "23-H7 Fab (Fab, V domains shown)", "VH": "QVQLVQSGAEVKLPGASMKVSCKASGYTFSTYYMHWVRQAPGQGPEWMGVIDPSGGTTSYAQKFHDRIAMTRDTSTSTAYLELSSLRSEDMAVYYCARGGFADAVDYWGQGTLVTVSS", "VL": "NFMLTQPHSVSGSPGKTVTISCTRNSGSIAGNYVQWYQQRPGSAPTTVIYEDNQRPSGVPDRFSGSIDSSSNSASLTISGLKTEDEADYYCQSYDASHLHVIFGGGTKVTVL"}, "B2": {"name": "22-E7 (full-length human IgG1) (antibody, V domains shown)", "VH": "QVQLVESGGGVVQPGTSLRLSCAASGFTFNNYPMFWVRQAPGKGLEWLALISYDGNHKVYADSVKGRFTISRDNAKNTLYLQMHSLRAEDTALYYCASDLSGAEDSWGQGTLVTVSS", "VL": "QSALTQPASVSGSPGQSITISCTGTSSDVGGYNYVSWYQQHPGKAPKLLIYEVSNRPSGVSNRFSGSKSGNTASLTISGLQAEDEADYYCSSYTSSSTWVFGGGTKLTVL"}}, "key": {"[1]": {"biological_target": "SARS-CoV-2 Spike RBD (tagless) (UniProt P0DTC2 319-541)", "test": "BLI"}, "SARS-CoV-2 Spike ()": {"biological_target": "SARS-CoV-2 Spike ()", "test": "BLI"}}}
{"binder": "B1", "values": [{"measurement": "IC50", "setting": "[1]", "result": 4.6, "unit": "nM"}]}
{"binder": "B2", "values": [{"measurement": "Kd", "setting": "SARS-CoV-2 Spike ()", "result": 248, "unit": "nM"}]}
